Laboratory results published in the supplement of paper PMC9112550, “Optimization of the antimicrobial peptide Bac7 by deep mutational scanning” (BMC Biology, 2022).

tested on: Escherichia coli TOP10; assay: shrunken log2 fold change of peptide-encoding DNA abundance (4.5 h post-induction vs induction); higher = less antimicrobial activity (less host growth inhibition); conditions: time post-induction: 4.5 h; library: site-saturation at positions 5, 18, 19, 20
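Note: peptides expressed intracellularly from a pBAD plasmid library in pooled LB shake-flask culture, induced with 0.3% L-arabinose, DNA abundance read by NGS, three biological replicates, DESeq2 with apeglm shrinkage.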

| Sequence | shrunken log2 fold change |
| --- | --- |
| RRIRIRPPRLPRPRPRPGGKPRP | -0.31 |
| RRIRKRPPRLPRPRPRPFMDPRP | 0.0834 |
| RRIRNRPPRLPRPRPRPRSRPRP | 0.177 |
| RRIRQRPPRLPRPRPRPDYFPRP | -0.198 |
| RRIRARPPRLPRPRPRPQMPPRP | 0.465 |
| RRIRPRPPRLPRPRPRPKWSPRP | -0.113 |
| RRIRIRPPRLPRPRPRPRDDPRP | 0.168 |
| RRIRPRPPRLPRPRPRPCMCPRP | -0.0305 |
| RRIRKRPPRLPRPRPRPNNWPRP | 0.42 |
| RRIRLRPPRLPRPRPRPVTEPRP | 0.0237 |
| RRIRIRPPRLPRPRPRPVMHPRP | 0.152 |
| RRIRWRPPRLPRPRPRPRQMPRP | 0.0196 |
| RRIRHRPPRLPRPRPRPAIYPRP | -0.798 |
| RRIRYRPPRLPRPRPRPVFCPRP | -0.419 |
| RRIRFRPPRLPRPRPRPDTTPRP | 0.00968 |
| RRIRKRPPRLPRPRPRPRYPPRP | 0.122 |
| RRIRKRPPRLPRPRPRPYKTPRP | -0.227 |
| RRIRQRPPRLPRPRPRPIFWPRP | 0.142 |
| RRIRVRPPRLPRPRPRPIAGPRP | 0.0142 |
| RRIRNRPPRLPRPRPRPYDKPRP | -0.388 |
| RRIRGRPPRLPRPRPRPMHCPRP | 0.0139 |
| RRIRNRPPRLPRPRPRPCSHPRP | -0.331 |
| RRIRCRPPRLPRPRPRPRSMPRP | -0.0145 |
| RRIRERPPRLPRPRPRPNCWPRP | 0.659 |
| RRIRFRPPRLPRPRPRPSVTPRP | -0.322 |

| Sequence | shrunken log2 fold change |
| --- | --- |
| RRIRPRPPRLPRPRPRPSEMPRP | -0.216 |
| RRIRARPPRLPRPRPRPTKGPRP | 0.308 |
| RRIRQRPPRLPRPRPRPRGYPRP | -0.00234 |
| RRIRCRPPRLPRPRPRPMHGPRP | 0.0358 |
| RRIRRRPPRLPRPRPRPKIDPRP | -0.000206 |
| RRIRYRPPRLPRPRPRPWMYPRP | -0.00277 |
| RRIRWRPPRLPRPRPRPWDAPRP | 0.22 |
| RRIRSRPPRLPRPRPRPLYDPRP | -0.113 |
| RRIRMRPPRLPRPRPRPLNVPRP | 0.0507 |
| RRIRGRPPRLPRPRPRPLVMPRP | 0.263 |
| RRIRMRPPRLPRPRPRPTTDPRP | 0.815 |
| RRIRQRPPRLPRPRPRPVPGPRP | -0.141 |
| RRIRQRPPRLPRPRPRPDLLPRP | 0.126 |
| RRIRDRPPRLPRPRPRPHTCPRP | -0.0522 |
| RRIRERPPRLPRPRPRPVAQPRP | -0.201 |
| RRIRTRPPRLPRPRPRPSAMPRP | -0.0978 |
| RRIRQRPPRLPRPRPRPFREPRP | -0.0101 |
| RRIRARPPRLPRPRPRPHRGPRP | 0.14 |
| RRIRMRPPRLPRPRPRPNSAPRP | 0.0568 |
| RRIRLRPPRLPRPRPRPKEFPRP | -0.0126 |
| RRIRARPPRLPRPRPRPCFCPRP | 0.25 |
| RRIRVRPPRLPRPRPRPSICPRP | -0.208 |
| RRIRKRPPRLPRPRPRPMYNPRP | -0.315 |
| RRIRIRPPRLPRPRPRPGMQPRP | -0.282 |
| RRIRYRPPRLPRPRPRPLIMPRP | -0.0566 |

| Sequence | shrunken log2 fold change |
| --- | --- |
| RRIRPRPPRLPRPRPRPQLRPRP | -0.0759 |
| RRIRMRPPRLPRPRPRPEPEPRP | 2.64 |
| RRIRDRPPRLPRPRPRPCTHPRP | -0.0766 |
| RRIRIRPPRLPRPRPRPKEGPRP | 0.00692 |
| RRIRERPPRLPRPRPRPIVCPRP | -0.022 |
| RRIRVRPPRLPRPRPRPSRVPRP | 0.0356 |
| RRIRERPPRLPRPRPRPKQKPRP | -0.0338 |
| RRIRARPPRLPRPRPRPCVTPRP | 0.176 |
| RRIRWRPPRLPRPRPRPRRSPRP | 0.492 |
| RRIRPRPPRLPRPRPRPHKYPRP | -0.29 |
| RRIRYRPPRLPRPRPRPNPTPRP | 0.0161 |
| RRIRTRPPRLPRPRPRPYQCPRP | -0.0724 |
| RRIRRRPPRLPRPRPRPKTRPRP | 2.44 |
| RRIRDRPPRLPRPRPRPKSAPRP | 0.0797 |
| RRIRPRPPRLPRPRPRPLDMPRP | -0.142 |
| RRIRIRPPRLPRPRPRPRNGPRP | 0.103 |
| RRIRNRPPRLPRPRPRPYTWPRP | -0.547 |
| RRIRCRPPRLPRPRPRPRQCPRP | 0.0586 |
| RRIRRRPPRLPRPRPRPHNNPRP | -0.508 |
| RRIRYRPPRLPRPRPRPSALPRP | -0.638 |
| RRIRWRPPRLPRPRPRPWAPPRP | 0.479 |
| RRIRVRPPRLPRPRPRPVEMPRP | -0.0393 |
| RRIRFRPPRLPRPRPRPNRSPRP | -0.299 |
| RRIRHRPPRLPRPRPRPDMCPRP | -0.173 |
| RRIRGRPPRLPRPRPRPYACPRP | -0.00589 |

| Sequence | shrunken log2 fold change |
| --- | --- |
| RRIRWRPPRLPRPRPRPHAGPRP | -0.0783 |
| RRIRPRPPRLPRPRPRPDHGPRP | -0.0198 |
| RRIRWRPPRLPRPRPRPLIRPRP | -0.117 |
| RRIRDRPPRLPRPRPRPEALPRP | 1.21 |
| RRIRFRPPRLPRPRPRPCRRPRP | 0.122 |
| RRIRSRPPRLPRPRPRPLFPPRP | -0.00148 |
| RRIRGRPPRLPRPRPRPPEWPRP | 1.13 |
| RRIRWRPPRLPRPRPRPKIQPRP | 0.21 |
| RRIRSRPPRLPRPRPRPPHAPRP | 0.629 |
| RRIRGRPPRLPRPRPRPTRIPRP | 0.901 |
| RRIRIRPPRLPRPRPRPACDPRP | -0.0913 |
| RRIRERPPRLPRPRPRPKARPRP | -0.276 |
| RRIRVRPPRLPRPRPRPTRKPRP | 0.575 |
| RRIRARPPRLPRPRPRPKVHPRP | 0.491 |
| RRIRHRPPRLPRPRPRPNNSPRP | -1.11 |
| RRIRLRPPRLPRPRPRPLFAPRP | 0.233 |
| RRIRQRPPRLPRPRPRPSSGPRP | -0.0384 |
| RRIRIRPPRLPRPRPRPPGQPRP | -0.125 |
| RRIRARPPRLPRPRPRPKIMPRP | -0.0664 |
| RRIRMRPPRLPRPRPRPKPPPRP | 1.64 |
| RRIRHRPPRLPRPRPRPCPEPRP | 0.037 |
| RRIRMRPPRLPRPRPRPKNVPRP | -0.16 |
| RRIRARPPRLPRPRPRPHLNPRP | 0.102 |
| RRIRSRPPRLPRPRPRPNRRPRP | -0.0429 |
| RRIRMRPPRLPRPRPRPMHPPRP | 0.0065 |

| Sequence | shrunken log2 fold change |
| --- | --- |
| RRIRARPPRLPRPRPRPIHSPRP | -0.184 |
| RRIRMRPPRLPRPRPRPLVDPRP | 0.526 |
| RRIRMRPPRLPRPRPRPPPMPRP | 1.54 |
| RRIRPRPPRLPRPRPRPMYNPRP | -0.639 |
| RRIRIRPPRLPRPRPRPNDRPRP | -0.0756 |
| RRIRNRPPRLPRPRPRPAQVPRP | 0.157 |
| RRIRHRPPRLPRPRPRPEQTPRP | -0.01 |
| RRIRLRPPRLPRPRPRPFRHPRP | -0.322 |
| RRIRSRPPRLPRPRPRPTCCPRP | 0.164 |
| RRIRFRPPRLPRPRPRPLSWPRP | 0.245 |
| RRIRCRPPRLPRPRPRPKCSPRP | 0.0495 |
| RRIRLRPPRLPRPRPRPFSSPRP | -0.000451 |
| RRIRSRPPRLPRPRPRPCICPRP | -0.209 |
| RRIRERPPRLPRPRPRPAQHPRP | 0.124 |
| RRIRPRPPRLPRPRPRPVIPPRP | -0.213 |
| RRIRARPPRLPRPRPRPKDMPRP | 0.263 |
| RRIRQRPPRLPRPRPRPKLQPRP | 1.59 |
| RRIRDRPPRLPRPRPRPHEAPRP | 0.151 |
| RRIRHRPPRLPRPRPRPFPTPRP | -0.0427 |
| RRIRWRPPRLPRPRPRPESKPRP | 0.268 |
| RRIRGRPPRLPRPRPRPFYNPRP | 0.0314 |
| RRIRPRPPRLPRPRPRPDMMPRP | -0.0321 |
| RRIRMRPPRLPRPRPRPALRPRP | 0.851 |
| RRIRFRPPRLPRPRPRPHKDPRP | -0.709 |
| RRIRLRPPRLPRPRPRPFRDPRP | 0.00463 |
